Assay results from publication PMC2173515 (The Journal of Cell Biology, 2003).

Experiments:
Assay in all cases: co-IP
[1] = biological target: T1, Vps27 truncated at residue 579 (yeast, UniProt P40343 1-579)
T1 sequence: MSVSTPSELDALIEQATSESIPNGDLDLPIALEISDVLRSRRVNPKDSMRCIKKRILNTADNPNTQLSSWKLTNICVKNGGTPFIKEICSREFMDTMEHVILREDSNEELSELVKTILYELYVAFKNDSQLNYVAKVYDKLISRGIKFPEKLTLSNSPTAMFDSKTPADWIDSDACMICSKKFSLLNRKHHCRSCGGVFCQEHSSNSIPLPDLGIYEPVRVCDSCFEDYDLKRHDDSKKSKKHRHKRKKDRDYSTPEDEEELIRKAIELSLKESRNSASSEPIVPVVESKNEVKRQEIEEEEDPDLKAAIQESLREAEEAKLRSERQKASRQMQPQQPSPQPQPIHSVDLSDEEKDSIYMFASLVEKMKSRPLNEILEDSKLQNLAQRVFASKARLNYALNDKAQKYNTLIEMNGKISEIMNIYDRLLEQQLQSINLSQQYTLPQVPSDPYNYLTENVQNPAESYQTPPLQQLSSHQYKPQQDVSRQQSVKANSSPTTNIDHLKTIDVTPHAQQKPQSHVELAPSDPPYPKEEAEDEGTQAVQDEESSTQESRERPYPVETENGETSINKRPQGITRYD

[2] = biological target: T2, Vps27 truncated at residue 485 (yeast, UniProt P40343 1-485)
T2 sequence: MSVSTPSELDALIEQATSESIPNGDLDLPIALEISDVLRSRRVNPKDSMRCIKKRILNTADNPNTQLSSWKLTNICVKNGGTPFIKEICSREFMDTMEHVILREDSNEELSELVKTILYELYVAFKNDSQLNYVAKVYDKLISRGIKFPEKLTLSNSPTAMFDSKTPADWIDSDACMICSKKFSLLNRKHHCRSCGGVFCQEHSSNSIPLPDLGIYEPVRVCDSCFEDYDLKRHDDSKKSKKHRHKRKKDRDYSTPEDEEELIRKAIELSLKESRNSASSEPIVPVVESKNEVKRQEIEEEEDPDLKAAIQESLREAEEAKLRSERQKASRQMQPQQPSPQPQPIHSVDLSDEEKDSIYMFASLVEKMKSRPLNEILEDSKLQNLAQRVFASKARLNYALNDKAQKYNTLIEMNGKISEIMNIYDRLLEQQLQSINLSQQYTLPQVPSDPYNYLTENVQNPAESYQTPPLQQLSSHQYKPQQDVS

[3] = biological target: T3, Vps27 truncated at residue 524 (yeast, UniProt P40343 1-524)
T3 sequence: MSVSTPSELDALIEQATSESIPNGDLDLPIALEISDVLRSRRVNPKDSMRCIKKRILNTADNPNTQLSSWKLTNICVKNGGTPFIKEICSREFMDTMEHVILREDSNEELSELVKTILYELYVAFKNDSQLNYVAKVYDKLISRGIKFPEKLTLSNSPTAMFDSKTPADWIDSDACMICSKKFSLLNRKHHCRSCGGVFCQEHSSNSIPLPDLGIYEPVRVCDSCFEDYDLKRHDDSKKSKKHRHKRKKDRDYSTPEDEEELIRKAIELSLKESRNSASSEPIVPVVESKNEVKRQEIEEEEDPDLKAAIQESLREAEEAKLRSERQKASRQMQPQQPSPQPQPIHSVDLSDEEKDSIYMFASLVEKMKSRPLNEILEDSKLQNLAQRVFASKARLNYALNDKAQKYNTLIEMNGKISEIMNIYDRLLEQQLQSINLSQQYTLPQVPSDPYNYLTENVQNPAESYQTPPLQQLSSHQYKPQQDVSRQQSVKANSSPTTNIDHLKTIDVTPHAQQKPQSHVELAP

[4] = biological target: T4, Vps27 truncated at residue 617 (yeast, UniProt P40343 1-617)
T4 sequence: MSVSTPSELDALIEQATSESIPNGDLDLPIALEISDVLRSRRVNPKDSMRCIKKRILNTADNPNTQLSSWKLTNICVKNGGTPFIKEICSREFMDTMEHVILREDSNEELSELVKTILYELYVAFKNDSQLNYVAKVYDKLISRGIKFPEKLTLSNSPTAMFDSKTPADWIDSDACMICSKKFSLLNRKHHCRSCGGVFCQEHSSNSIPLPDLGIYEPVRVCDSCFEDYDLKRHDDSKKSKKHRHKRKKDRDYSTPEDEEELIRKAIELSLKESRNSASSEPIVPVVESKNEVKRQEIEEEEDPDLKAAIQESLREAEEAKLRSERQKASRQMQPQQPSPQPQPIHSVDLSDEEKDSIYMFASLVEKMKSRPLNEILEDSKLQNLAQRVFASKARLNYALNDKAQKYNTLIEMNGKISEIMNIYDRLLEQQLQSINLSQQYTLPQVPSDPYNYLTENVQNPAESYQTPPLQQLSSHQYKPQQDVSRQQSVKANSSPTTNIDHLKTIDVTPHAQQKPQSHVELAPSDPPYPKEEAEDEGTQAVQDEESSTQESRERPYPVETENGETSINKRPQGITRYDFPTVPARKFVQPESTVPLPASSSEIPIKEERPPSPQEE

[5] = biological target: T5, Vps27 (full-length, wild type) (yeast, UniProt P40343 1-622)
T5 sequence: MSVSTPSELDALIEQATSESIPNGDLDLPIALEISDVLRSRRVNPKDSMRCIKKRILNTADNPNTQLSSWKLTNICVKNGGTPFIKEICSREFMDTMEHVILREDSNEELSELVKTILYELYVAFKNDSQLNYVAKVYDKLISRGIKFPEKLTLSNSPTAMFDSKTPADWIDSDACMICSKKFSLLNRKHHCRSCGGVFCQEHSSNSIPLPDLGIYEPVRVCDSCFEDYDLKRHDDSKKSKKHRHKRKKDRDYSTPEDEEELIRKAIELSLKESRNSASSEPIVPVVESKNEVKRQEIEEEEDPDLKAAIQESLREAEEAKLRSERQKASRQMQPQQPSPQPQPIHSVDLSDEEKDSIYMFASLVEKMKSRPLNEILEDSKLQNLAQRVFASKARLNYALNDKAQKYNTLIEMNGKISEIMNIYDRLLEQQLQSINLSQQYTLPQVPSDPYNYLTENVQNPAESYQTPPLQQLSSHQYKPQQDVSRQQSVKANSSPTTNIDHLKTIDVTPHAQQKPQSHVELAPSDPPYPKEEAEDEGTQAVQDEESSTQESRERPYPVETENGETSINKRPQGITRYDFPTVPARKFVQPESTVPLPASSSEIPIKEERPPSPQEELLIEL

Measured: percent of Vps23 co-immunoprecipitated

B1: Vps23-HA (natural protein)
chain: MSANGKISVPEAVVNWLFKVIQPIYNDGRTTFHDSLALLDNFHSLRPRTRVFTHSDGTPQLLLSIYGTISTGEDGSSPHSIPVIMWVPSMYPVKPPFISINLENFDMNTISSSLPIQEYIDSNGWIALPILHCWDPAAMNLIMVVQELMSLLHEPPQDQAPSLPPKPNTQLQQEQNTPPLPPKPKSPHLKPPLPPPPPPQPASNALDLMDMDNTDISPTNHHEMLQNLQTVVNELYREDVDYVADKILTRQTVMQESIARFHEIIAIDKNHLRAVEQAIEQTMHSLNAQIDVLTANRAKVQQFSSTSHVDDEDVNSIAVAKTDGLNQLYNLVAQDYALTDTIECLSRMLHRGTIPLDTFVKQGRELARQQFLVRWHIQRITSPLS
~10%: all assays above
